In patent publication US20250019740:
Read-outs that look alike come from different tables or passages of the source.

What was measured:
[1] = tested on: synthetic substrate peptide […]
[2] = tested on: MBP-ENLYFQS-GST fusion protein
[3] = biological target: synthetic substrate peptide […]; remark: listed apart in the source

TEV variant E1 (Q74L, S200N on the TEV-EAV template)
activity on the peptide in vitro [1]: six selected clones showed higher activity on the peptide […] (SEQ ID NO:33) compared to TEV-EAV

TEV variant E2 (S3I, P8Q, S31T, A231V on the TEV-EAV template)
activity on the peptide in vitro [1]: six selected clones showed higher activity on the peptide […] (SEQ ID NO:33) compared to TEV-EAV

TEV-S219P
percent of fusion protein digested in 40 minutes at 30° C. at a 1:100 ratio [2]: compared to ˜68% for TEV-EAV and TEV-S219P

TEV variant S8 (A173D, V219K on the TEV-EAV template)
activity on the peptide in vitro [1]: six selected clones showed higher activity on the peptide […] (SEQ ID NO:33) compared to TEV-EAV

TEV variant S6 (E79S, A173G, V219S on the TEV-EAV template)
activity on the peptide in vitro [1]: six selected clones showed higher activity on the peptide […] (SEQ ID NO:33) compared to TEV-EAV

TEV variant S7 (E79G, S219R on the TEV-EAV template)
activity on the peptide in vitro [1]: six selected clones showed higher activity on the peptide […] (SEQ ID NO:33) compared to TEV-EAV

uTEV3
percent of fusion cleaved after 30 mins at a 1:200 protease to substrate ratio [2]: compared to only 30% cleavage with uTEV3
KM [1]: the improved catalytic efficiency in uTEV3 appears to be mainly due to a significant KM decrease

TEV variant E5 (K6M, S15L on the TEV-EAV template)
activity on the peptide in vitro [1]: six selected clones showed higher activity on the peptide […] (SEQ ID NO:33) compared to TEV-EAV

B1: enhanced TEV "eTEV" mutant TEV protease (S3I, P8Q, S31T, E79G, T173A, S219R, A231V) (protein)
chain: ILFKGQRDYNPISSTICHLTNESDGHTTTLYGIGFGPFIITNKHLFRRNNGTLLVQSLHGVFKVKNTTTLQQHLIDGRDMIIIRMPKDFPPFPQKLKFREPQREERICLVTTNFQTKSMSSMVSDTSCTFPSSDGIFWKHWIQTKDGQCGSPLVSTRDGFIVGIHSASNFANTNNYFTSVPKNFMELLTNQEAQQWVSGWRLNADSVLWGGHKVFMRKPEEPFQPVKEVTQLMRRRRR
KM [3]: KM of eTEV remained unchanged at 65 µM with that of TEV-EAV
fold decreased KM compared to TEV-S219P [3]: 2.77-fold decreased KM
fold improvement in catalytic efficiency (kcat/KM) compared to TEV-EAV [3]: 2-fold improvement in catalytic efficiency (kcat/KM) compared to TEV-EAV
fold increase in catalytic efficiency relative to the parent TEV-S219P [3]: ~8-fold overall increase in catalytic efficiency relative to the parent TEV-S219P
fold increased catalytic turnover rate (kcat) compared to TEV-S219P [3]: 2.73-fold increased catalytic turnover rate (kcat)
turnover rate (kcat) [3]: the turnover rate (kcat) was improved from 0.17 s^-1 to 0.41 s^-1

B2: TEV-EAV, triple mutant TEV variant (G79E, T173A, S219V) (protein)
chain: GESLFKGPRDYNPISSTICHLTNESDGHTTSLYGIGFGPFIITNKHLFRRNNGTLLVQSLHGVFKVKNTTTLQQHLIDERDMIIIRMPKDFPPFPQKLKFREPQREERICLVTNFQTKSMSSMVSDTSCTFPSSDGIFWKHWIQTKDGQCGSPLVSTRDGFIVGIHSASNFANTNNYFTSVPKNFMELLTNQEAQQWVSGWRLNADSVLWGGHKVFMVKPEEPFQPVKEATQLM
KM [3]: KM of eTEV remained unchanged at 65 µM with that of TEV-EAV
turnover rate (kcat) [3]: the turnover rate (kcat) was improved from 0.17 s^-1 to 0.41 s^-1
